Results reported in publication PMC9253567, “The Role of ZAP and TRIM25 RNA Binding in Restricting Viral Translation” (Frontiers in Cellular and Infection Microbiology, 2022).
Where a chain is given by its changes, count along the chain named. Names and notes keep the numbering of the source.

B1: FLAG-tagged ZAPS H191R (ZnF 4 mutant) (natural protein, human, UniProt Q7Z2W4-2 1-699, looked up)
chain: MADPEVCCFITKILCAHGGRMALDALLQEIALSEPQLCEVLQVAGPDRFVVLETGGEAGITRSVVATTRARVCRRKYCQRPCDNLHLCKLNLLGRCNYSQSERNLCKYSHEVLSEENFKVLKNHELSGLNKEELAVLLLQSDPFFMPEICKSYKGEGRQQICNQQPPCSRLHICDHFTRGNCRFPNCLRSRNLMDRKVLAIMREHGLNPDVVQNIQDICNSKHMQKNPPGPRAPSSHRRNMAYRARSKSRDRFFQGSQEFLASASASAERSCTPSPDQISHRASLEDAPVDDLTRKFTYLGSQDRARPPSGSSKATDLGGTSQAGTSQRFLENGSQEDLLHGNPGSTYLASNSTSAPNWKSLTSWTNDQGARRKTVFSPTLPAARSSLGSLQTPEAVTTRKGTGLLSSDYRIINGKSGTQDIQPGPLFNNNADGVATDITSTRSLNYKSTSSGHREISSPRIQDAGPASRDVQATGRIADDADPRVALVNDSLSDVTSTTSSRVDDHDSEEICLDHLCKGCPLNGSCSKVHFHLPYRWQMLIGKTWTDFEHMETIEKGYCNPGIHLCSVGSYTINFRVMSCDSFPIRRLSTPSSVTKPANSVFTTKWIWYWKNESGTWIQYGEEKDKRKNSNVDSSYLESLYQSCPRGVVPFQAGSRNYELSFQGMIQTNIASKTQKDVIRRPTFVPQWYVQQMKRGPE
notes: zinc finger antiviral protein (ZAP), short isoform ZAPS, cloned from pTRIP-TagRFP-hZAPS; source: ZAP KO 293T cells, transfected (pcDNA3.1-3XFLAG), in lysate; not shown: 3XFLAG, N-terminal, kept
B2: FLAG-tagged ZAPL C88R (ZnF 2 mutant) (natural protein, human, UniProt Q7Z2W4-1 1-902, looked up)
chain: MADPEVCCFITKILCAHGGRMALDALLQEIALSEPQLCEVLQVAGPDRFVVLETGGEAGITRSVVATTRARVCRRKYCQRPCDNLHLRKLNLLGRCNYSQSERNLCKYSHEVLSEENFKVLKNHELSGLNKEELAVLLLQSDPFFMPEICKSYKGEGRQQICNQQPPCSRLHICDHFTRGNCRFPNCLRSHNLMDRKVLAIMREHGLNPDVVQNIQDICNSKHMQKNPPGPRAPSSHRRNMAYRARSKSRDRFFQGSQEFLASASASAERSCTPSPDQISHRASLEDAPVDDLTRKFTYLGSQDRARPPSGSSKATDLGGTSQAGTSQRFLENGSQEDLLHGNPGSTYLASNSTSAPNWKSLTSWTNDQGARRKTVFSPTLPAARSSLGSLQTPEAVTTRKGTGLLSSDYRIINGKSGTQDIQPGPLFNNNADGVATDITSTRSLNYKSTSSGHREISSPRIQDAGPASRDVQATGRIADDADPRVALVNDSLSDVTSTTSSRVDDHDSEEICLDHLCKGCPLNGSCSKVHFHLPYRWQMLIGKTWTDFEHMETIEKGYCNPGIHLCSVGSYTINFRVMSCDSFPIRRLSTPSSVTKPANSVFTTKWIWYWKNESGTWIQYGEEKDKRKNSNVDSSYLESLYQSCPRGVVPFQAGSRNYELSFQGMIQTNIASKTQKDVIRRPTFVPQWYVQQMKRGPDHQPAKTSSVSLTATFRPQEDFCFLSSKKYKLSEIHHLHPEYVRVSEHFKASMKNFKIEKIKKIENSELLDKFTWKKSQMKEEGKLLFYATSRAYVESICSNNFDSFLHETHENKYGKGIYFAKDAIYSHKNCPYDAKNVVMFVAQVLVGKFTEGNITYTSPPPQFDSCVDTRSNPSVFVIFQKDQVYPQYVIEYTEDKACVIS
notes: zinc finger antiviral protein (ZAP), long isoform ZAPL, cloned from pTRIP-TagRFP-hZAPL; source: ZAP KO 293T cells, transfected (pcDNA3.1-3XFLAG), in lysate; not shown: 3XFLAG, N-terminal, kept
B3: FLAG-tagged ZAPL H191R (ZnF 4 mutant) (natural protein, human, UniProt Q7Z2W4-1 1-902, looked up)
chain: B2 chain with R88C, H191R
notes: as for B2
B4: FLAG-tagged ZAPL K107A/Y108A (natural protein, human, UniProt Q7Z2W4-1 1-902, looked up)
chain: B2 chain with R88C, K107A, Y108A
notes: zinc finger antiviral protein (ZAP), long isoform ZAPL, cloned from pTRIP-TagRFP-hZAPL; also called ZAPL KY; KY; source: ZAP KO 293T cells, transfected (pcDNA3.1-3XFLAG), in lysate; not shown: 3XFLAG, N-terminal, kept
B5: FLAG-tagged ZAPL V72A/Y108A/F144A (natural protein, human, UniProt Q7Z2W4-1 1-902, looked up)
chain: B2 chain with V72A, R88C, Y108A, F144A
notes: zinc finger antiviral protein (ZAP), long isoform ZAPL, cloned from pTRIP-TagRFP-hZAPL; also called ZAPL VYF; VYF; source: ZAP KO 293T cells, transfected (pcDNA3.1-3XFLAG), in lysate; not shown: 3XFLAG, N-terminal, kept
B6: FLAG-tagged ZAPL H176A/F184A/R189A (natural protein, human, UniProt Q7Z2W4-1 1-902, looked up)
chain: B2 chain with R88C, H176A, F184A, R189A
notes: zinc finger antiviral protein (ZAP), long isoform ZAPL, cloned from pTRIP-TagRFP-hZAPL; also called ZAPL HFR; HFR; source: ZAP KO 293T cells, transfected (pcDNA3.1-3XFLAG), in lysate; not shown: 3XFLAG, N-terminal, kept
B7: FLAG-tagged ZAPL E148A/K151A/R170A (natural protein, human, UniProt Q7Z2W4-1 1-902, looked up)
chain: B2 chain with R88C, E148A, K151A, R170A
notes: zinc finger antiviral protein (ZAP), long isoform ZAPL, cloned from pTRIP-TagRFP-hZAPL; also called ZAPL EKR; EKR; source: ZAP KO 293T cells, transfected (pcDNA3.1-3XFLAG), in lysate; not shown: 3XFLAG, N-terminal, kept

Each binder was assayed against T1, myc-tagged TRIM25 WT (tripartite motif-containing protein 25) (UniProt Q14258 1-630) (assay: cell-based or functional assay). Settings: not given.
T1 sequence (Q14258 whole entry): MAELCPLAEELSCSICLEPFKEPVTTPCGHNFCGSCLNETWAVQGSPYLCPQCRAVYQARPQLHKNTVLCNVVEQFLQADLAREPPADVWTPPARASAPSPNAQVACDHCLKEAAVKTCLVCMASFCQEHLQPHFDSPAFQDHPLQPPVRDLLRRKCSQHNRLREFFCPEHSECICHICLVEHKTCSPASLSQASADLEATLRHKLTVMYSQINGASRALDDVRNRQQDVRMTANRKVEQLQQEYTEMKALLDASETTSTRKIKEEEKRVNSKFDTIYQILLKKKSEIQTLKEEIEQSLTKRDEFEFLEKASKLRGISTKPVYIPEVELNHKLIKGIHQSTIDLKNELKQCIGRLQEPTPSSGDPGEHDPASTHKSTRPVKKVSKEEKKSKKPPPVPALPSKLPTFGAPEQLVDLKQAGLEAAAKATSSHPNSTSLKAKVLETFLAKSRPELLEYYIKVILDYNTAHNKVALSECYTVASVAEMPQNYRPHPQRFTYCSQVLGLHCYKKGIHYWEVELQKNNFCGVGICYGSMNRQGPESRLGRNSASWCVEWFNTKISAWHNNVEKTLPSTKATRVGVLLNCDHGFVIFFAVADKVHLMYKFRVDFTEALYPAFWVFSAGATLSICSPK
In the case of B1, the “JEV translation inhibition: fold inhibition of Renilla luciferase from a replication-defective JEV replicon, relative to empty plasmid, ZAP KO 293T cells, 4 h after replicon transfection” value is reported as 2.18 fold inhibition relative to empty plasmid transfection.
In the case of B2, the “JEV translation inhibition: fold inhibition of Renilla luciferase from a replication-defective JEV replicon, relative to empty plasmid, ZAP KO 293T cells, 4 h after replicon transfection” value is reported as 5.19 fold inhibition relative to empty plasmid transfection.
For B3, the “JEV translation inhibition: fold inhibition of Renilla luciferase from a replication-defective JEV replicon, relative to empty plasmid, ZAP KO 293T cells, 4 h after replicon transfection” value was 9.05 fold inhibition relative to empty plasmid transfection.

These binders were tested against T1, myc-tagged TRIM25 WT (tripartite …) (assay: co-IP; myc IP (anti-myc beads) of myc-TRIM25 WT from lysates of ZAP KO 293T cells co-transfected with FLAG-ZAPS or FLAG-ZAPL WT or mutants; FLAG-ZAP detected by immunoblot; FLAG IP buffer (100 mM Tris-HCl 8.0, 150 mM NaCl, 5 mM EDTA, 1 mM DTT, 5% glycerol, 0.1% NP-40), 4°C, 45 min; FLAG IP band divided by myc IP band (ImageJ)). Settings: partners not purified.
For B1, the “ZAP-TRIM25 interaction (co-IP, FLAG-ZAP band over myc-TRIM25 band, ImageJ)” value was 1.05.
In the case of B2, the “ZAP-TRIM25 interaction (co-IP, FLAG-ZAP band over myc-TRIM25 band, ImageJ)” value is reported as 1.13.
With B4 the “ZAP-TRIM25 interaction (co-IP, FLAG-ZAP band over myc-TRIM25 band, ImageJ)” value was 0.086.
With B5 the “ZAP-TRIM25 interaction (co-IP, FLAG-ZAP band over myc-TRIM25 band, ImageJ)” value was 0.574.
For B6, the “ZAP-TRIM25 interaction (co-IP, FLAG-ZAP band over myc-TRIM25 band, ImageJ)” value was 0.03.
In the case of B3, the “ZAP-TRIM25 interaction (co-IP, FLAG-ZAP band over myc-TRIM25 band, ImageJ)” value is reported as 0.899.
For B7, the “ZAP-TRIM25 interaction (co-IP, FLAG-ZAP band over myc-TRIM25 band, ImageJ)” value was 0.196.
